Measurements from patent US20030099608A1 (ZymoGenetics, published 2003).
Each block holds one molecule with its values, some of them ahead of it.

Tests used:
[1] = target: human IL-TIF (T-cell inducible Factor) (human) (UniProt Q9GZX6); test: cell-based or functional assay
[2] = target: T1, CRF2-4/zcytor11 heterodimeric receptor on BaF3 cells (BaF3/CRF2-4/zcytor11 cells) (human, UniProt Q08334 20-325; Q8N6P7 16-574); test: cell-based or functional assay
T1 sequence (looked up) 1: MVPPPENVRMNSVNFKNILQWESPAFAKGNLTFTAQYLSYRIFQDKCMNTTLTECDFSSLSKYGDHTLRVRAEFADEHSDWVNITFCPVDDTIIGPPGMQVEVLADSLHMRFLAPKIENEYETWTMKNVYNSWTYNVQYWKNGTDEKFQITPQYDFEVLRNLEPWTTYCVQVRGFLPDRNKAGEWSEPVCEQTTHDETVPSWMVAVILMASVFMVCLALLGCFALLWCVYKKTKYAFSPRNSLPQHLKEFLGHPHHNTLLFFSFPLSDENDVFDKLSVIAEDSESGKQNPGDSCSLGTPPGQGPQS
T1 sequence (looked up) 2: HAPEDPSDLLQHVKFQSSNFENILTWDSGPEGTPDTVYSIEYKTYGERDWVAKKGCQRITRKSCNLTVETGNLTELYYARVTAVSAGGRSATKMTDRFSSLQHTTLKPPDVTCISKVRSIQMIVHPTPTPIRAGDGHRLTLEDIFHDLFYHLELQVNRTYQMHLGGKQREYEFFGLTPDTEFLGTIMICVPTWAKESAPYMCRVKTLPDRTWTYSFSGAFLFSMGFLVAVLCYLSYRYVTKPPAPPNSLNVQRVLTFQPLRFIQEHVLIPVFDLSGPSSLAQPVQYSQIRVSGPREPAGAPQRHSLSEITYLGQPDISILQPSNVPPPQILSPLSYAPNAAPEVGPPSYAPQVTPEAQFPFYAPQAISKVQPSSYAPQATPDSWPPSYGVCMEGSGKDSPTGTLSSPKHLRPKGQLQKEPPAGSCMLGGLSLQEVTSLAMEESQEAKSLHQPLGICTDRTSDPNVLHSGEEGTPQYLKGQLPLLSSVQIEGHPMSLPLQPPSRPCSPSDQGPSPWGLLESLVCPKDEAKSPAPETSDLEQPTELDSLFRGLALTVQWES

concentration of CRF2-4/zcytor11-Fc4 at which inhibition of proliferation induced by 100 pg/ml IL-TIF was barely detectable [1]: 63 ng/mL | concentration of CRF2-4/zcytor11-Fc4 giving complete inhibition of proliferation induced by 100 pg/ml IL-TIF [1]: 8 µg/mL
Molecule: secreted hzcytor11/hCRF2-4 heterodimer (CRF2-4/zcytor11-Fc4) (Fc fusion)

proliferation of BaF3/CRF2-4/zcytor11 cells (Alamar Blue), fold over background with 100 pg/ml IL-TIF alone [2]: 13 fold over background
B1: human IL-TIF (T-cell inducible Factor) (ligand)
chain: APISSHCRLDKSNFQQPYITNRTFMLAKEASLADNNTDVRLIGEKLFHGVSMSERCYLMKQVLNFTLEEVLFPQSDRFQPYMQEVVPFLARLSNRLSTCHIEGDDLHIQRNVQKLKDTVKKLGESGEIKAIGELDLLFMSLRNACI

proliferation of BaF3/CRF2-4/zcytor11 cells (Alamar Blue), fold induction at 0.06 ng/ml IL-TIF-CEE [2]: 2 fold induction | proliferation of BaF3/CRF2-4/zcytor11 cells (Alamar Blue), fold over background at 50 ng/ml IL-TIF-CEE [2]: ~15 fold over background
B2: IL-TIF-CEE (IL-TIF polypeptide with C-terminal Glu-Glu tag) (ligand)
chain: APISSHCRLDKSNFQQPYITNRTFMLAKEASLADNNTDVRLIGEKLFHGVSMSERCYLMKQVLNFTLEEVLFPQSDRFQPYMQEVVPFLARLSNRLSTCHIEGDDLHIQRNVQKLKDTVKKLGESGEIKAIGELDLLFMSLRNACIEYMPME
